Results taken from patent US20240116985A1 (published 2024).
Starred links: 1 amine or outer side, 2 acyl side, 3 side chain; linkers in the order of their positions; H or OH if unused. Positions of bridges follow the written chain, without caps; N, C: chain ends. Non-standard residues stand in square brackets, D forms with d. Primed or numbered codes have the meaning given here. PyrS2(3) = (S)-3-amino-1-((pent-4-en-1-yloxy)carbonyl)pyrrolidine-3-carboxylic acid, stapling residue, C=CCCCOC(=O)N1CC[C@@](N[*:1])(C(=O)[*:2])C1; B5(16) = 2-amino-2-(pent-4-en-1-yl)hept-6-enoic acid = 2,2-bis(4-pentenyl)glycine (stitching residue), C=CCCCC(CCCC=C)(N[*:1])C(=O)[*:2]; B5(4) = 2,2-bis(4-pentenyl)glycine = 2-amino-2-(pent-4-en-1-yl)hept-6-enoic acid (stitching residue), C=CCCCC(CCCC=C)(N[*:1])C(=O)[*:2]; TfeGA = (S)-2-amino-3-((carboxymethyl)(2,2,2-trifluoroethyl)amino)propanoic acid, O=C([C@H](CN(CC(=O)[*:3])CC(F)(F)F)N[*:1])[*:2]; PyrS2(5) = (S)-3-amino-1-((alkenyloxy)carbonyl)pyrrolidine-3-carboxylic acid, carbamate stapling residue; B5″ = 2,2-bis(4-pentenyl)glycine, stitching residue, C=CCCCC(CCCC=C)(N[*:1])C(=O)[*:2]; Phe(3-COOH) = N[C@@H](Cc1cccc(C(=O)O)c1)C(=O)O; Phe(2-Cl) = N[C@@H](Cc1ccccc1Cl)C(=O)O; Bta = N[C@@H](Cc1csc2ccccc12)C(=O)O; αAllylPro = C=CC[C@@]1(C(=O)O)CCCN1; tBuAla = CC(C)(C)C[C@H](N)C(=O)O; 3Thi = N[C@@H](Cc1ccsc1)C(=O)O; S8 = C=CCCCCCC[C@](C)(N)C(=O)O; PyrS2(4) = not defined here; Nle = CCCC[C@H](N)C(=O)O

Key:
[1] = molecular target: T1, beta-catenin in DLD1 TCF/LEF luciferase reporter cells (UniProt P35222 1-781); test: cell-based or functional assay
T1 sequence (looked up): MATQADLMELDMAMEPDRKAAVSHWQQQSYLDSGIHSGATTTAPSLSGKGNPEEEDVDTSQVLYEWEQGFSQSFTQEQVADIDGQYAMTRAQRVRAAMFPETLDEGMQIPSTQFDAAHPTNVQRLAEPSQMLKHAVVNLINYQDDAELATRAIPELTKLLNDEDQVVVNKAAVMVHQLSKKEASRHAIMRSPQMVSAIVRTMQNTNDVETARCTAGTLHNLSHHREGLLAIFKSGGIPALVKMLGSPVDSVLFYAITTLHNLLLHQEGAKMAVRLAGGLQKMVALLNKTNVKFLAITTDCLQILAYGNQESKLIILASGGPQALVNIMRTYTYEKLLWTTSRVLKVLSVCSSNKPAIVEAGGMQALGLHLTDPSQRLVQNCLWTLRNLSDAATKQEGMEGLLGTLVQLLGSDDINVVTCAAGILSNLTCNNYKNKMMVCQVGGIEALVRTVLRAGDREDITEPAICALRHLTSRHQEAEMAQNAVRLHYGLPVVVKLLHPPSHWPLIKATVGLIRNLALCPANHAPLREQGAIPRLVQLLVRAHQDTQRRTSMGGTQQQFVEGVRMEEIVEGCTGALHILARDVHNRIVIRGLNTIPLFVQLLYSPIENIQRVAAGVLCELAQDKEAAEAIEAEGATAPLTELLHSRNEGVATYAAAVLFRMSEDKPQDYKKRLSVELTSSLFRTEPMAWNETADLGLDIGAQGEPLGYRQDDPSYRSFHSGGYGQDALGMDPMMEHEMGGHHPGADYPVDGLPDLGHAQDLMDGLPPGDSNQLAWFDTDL

B-cat-Halo = molecular target: T2, B-cat-Halo (UniProt P35222 1-781); test: cell-based or functional assay
T2 sequence (looked up): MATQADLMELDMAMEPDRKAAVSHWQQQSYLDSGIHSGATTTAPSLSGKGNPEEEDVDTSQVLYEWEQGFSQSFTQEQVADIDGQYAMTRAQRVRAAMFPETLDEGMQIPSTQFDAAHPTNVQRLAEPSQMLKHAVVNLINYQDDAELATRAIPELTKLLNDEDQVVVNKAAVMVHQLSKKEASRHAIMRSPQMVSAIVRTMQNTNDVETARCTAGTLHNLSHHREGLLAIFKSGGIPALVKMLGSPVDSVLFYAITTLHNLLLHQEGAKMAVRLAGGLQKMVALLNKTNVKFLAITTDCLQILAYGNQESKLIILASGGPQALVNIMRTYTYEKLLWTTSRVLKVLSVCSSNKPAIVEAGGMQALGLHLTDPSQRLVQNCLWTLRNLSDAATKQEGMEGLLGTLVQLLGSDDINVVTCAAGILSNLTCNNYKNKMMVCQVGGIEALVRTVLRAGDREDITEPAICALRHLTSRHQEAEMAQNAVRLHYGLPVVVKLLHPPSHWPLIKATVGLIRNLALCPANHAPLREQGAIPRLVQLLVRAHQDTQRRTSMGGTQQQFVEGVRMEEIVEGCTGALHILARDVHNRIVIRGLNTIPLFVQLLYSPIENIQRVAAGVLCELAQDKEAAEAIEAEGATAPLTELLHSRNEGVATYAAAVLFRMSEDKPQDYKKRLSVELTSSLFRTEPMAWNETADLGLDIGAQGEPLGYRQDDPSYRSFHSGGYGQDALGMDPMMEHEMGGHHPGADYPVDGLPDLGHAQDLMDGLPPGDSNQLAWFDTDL

Bcat-Halo = molecular target: T3, Bcat-Halo (UniProt P35222 1-781); test: NanoBRET in HEK293 cells, Bcat-Halo/TCF4-Luc (competitor TCF4-Luc); absolute IC50
T3 construct: Construct transfected into HEK293 cells for NanoBRET; not shown: HaloTag fusion partner
T3 sequence (looked up): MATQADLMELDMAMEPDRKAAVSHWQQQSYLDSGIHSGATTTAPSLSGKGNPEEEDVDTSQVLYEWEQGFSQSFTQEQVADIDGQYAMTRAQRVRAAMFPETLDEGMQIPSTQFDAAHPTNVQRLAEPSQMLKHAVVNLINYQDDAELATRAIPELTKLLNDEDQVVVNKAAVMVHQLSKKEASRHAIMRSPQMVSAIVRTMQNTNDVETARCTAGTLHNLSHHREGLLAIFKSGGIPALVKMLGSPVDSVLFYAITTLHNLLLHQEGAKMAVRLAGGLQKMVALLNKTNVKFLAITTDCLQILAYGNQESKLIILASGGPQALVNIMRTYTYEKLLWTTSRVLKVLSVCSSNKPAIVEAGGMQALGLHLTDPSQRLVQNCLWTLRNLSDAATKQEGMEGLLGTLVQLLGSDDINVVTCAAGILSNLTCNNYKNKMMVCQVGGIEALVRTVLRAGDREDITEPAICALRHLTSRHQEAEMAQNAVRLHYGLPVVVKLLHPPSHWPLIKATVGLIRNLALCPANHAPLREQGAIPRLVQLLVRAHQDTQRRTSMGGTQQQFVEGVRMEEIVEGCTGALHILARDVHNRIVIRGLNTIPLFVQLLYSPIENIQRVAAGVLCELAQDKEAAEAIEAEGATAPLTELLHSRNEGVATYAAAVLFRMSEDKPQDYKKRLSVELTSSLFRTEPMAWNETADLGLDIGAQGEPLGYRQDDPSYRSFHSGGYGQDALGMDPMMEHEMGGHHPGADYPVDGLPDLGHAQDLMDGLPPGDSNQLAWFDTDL

[2] = molecular target: T4, full-length beta-Catenin (Uniprot ID P35222) (Homo sapiens (Human), UniProt P35222 2-781); test: fluorescence polarization competition; full-length beta-catenin, competitor 5FAM-TCF4(10-53) probe
T4 construct: Also used here for the endogenous beta-catenin of the DLD1 TCF reporter cells; also called bCat; B-Catenin
T4 sequence: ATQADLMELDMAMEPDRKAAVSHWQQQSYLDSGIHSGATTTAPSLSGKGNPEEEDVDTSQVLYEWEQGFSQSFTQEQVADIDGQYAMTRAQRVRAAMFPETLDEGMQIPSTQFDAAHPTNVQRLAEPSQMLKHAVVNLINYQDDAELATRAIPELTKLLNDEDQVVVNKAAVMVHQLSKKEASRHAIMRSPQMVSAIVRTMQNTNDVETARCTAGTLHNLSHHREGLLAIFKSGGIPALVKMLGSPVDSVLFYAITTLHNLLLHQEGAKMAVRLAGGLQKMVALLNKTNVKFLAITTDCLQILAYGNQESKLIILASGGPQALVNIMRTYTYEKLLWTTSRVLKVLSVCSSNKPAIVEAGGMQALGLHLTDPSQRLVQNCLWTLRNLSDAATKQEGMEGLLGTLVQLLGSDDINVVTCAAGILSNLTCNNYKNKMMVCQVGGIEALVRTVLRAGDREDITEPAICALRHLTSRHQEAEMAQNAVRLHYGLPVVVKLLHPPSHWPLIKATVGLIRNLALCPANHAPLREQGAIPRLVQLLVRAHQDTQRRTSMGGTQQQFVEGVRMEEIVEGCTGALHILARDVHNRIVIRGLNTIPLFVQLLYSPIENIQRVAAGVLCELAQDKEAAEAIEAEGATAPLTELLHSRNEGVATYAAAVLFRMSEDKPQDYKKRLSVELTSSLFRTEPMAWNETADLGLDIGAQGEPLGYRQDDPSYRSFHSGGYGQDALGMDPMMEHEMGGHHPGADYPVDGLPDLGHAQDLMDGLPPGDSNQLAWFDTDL
Outline: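 Plate incubated 60 minutes at 20° C. protected from light before reading. Concentrations given are final.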

B1: I-1684 (peptide)
peptide: Ac-[αAllylPro]D[tBuAla][B5(16)]D[Phe(3-COOH)]GAFL[PyrS2(4)][Phe(2-Cl)][Bta]Q-NH2
modifications: staple 1-4, 4-11; not fully specified; printed as Ac-PL3-Asp-Npg-B5-Asp-3COOHF-Gly-Ala-Phe-Leu-PyrS2-2C1F-BztA-Gln-NH2; reading uncertain
In the case of B1, the “DLD1 4% Abs IC50” value [1] is reported as 3.4 µM.

B2: I-1685 (peptide)
peptide: Ac-[αAllylPro]D[tBuAla][B5(16)]D[Phe(3-COOH)][Nle]AFL[PyrS2(5)][Phe(2-Cl)][Bta]Q-NH2
modifications: staple 1-4, 4-11
In the case of B2, the “DLD1 4% Abs IC50” value [1] is reported as 1.3 µM.

B3: I-761 (peptide)
peptide: Ac-[αAllylPro]D[tBuAla][B5″]D[TfeGA]AAFN[PyrS2(3)][3Thi][Bta]Q-NH2
modifications: staple 1-4, 4-11
With B3 the “NanoBRET IC50” value (B-cat-Halo) was 5 µM.

B4: I-752 (peptide)
peptide: Ac-[αAllylPro]DL[B5(4)]DEAAFN[S8]F[Bta]N-NH2
modifications: staple 1-4, 4-11; also: olefin E/Z not assigned, earlier-eluting staple isomer
notes: Stapled peptide composition
An IC50 (Bcat-Halo) of 9.9 µM and an EC50 [2] of 0.016 µM were found for B4 in this work.
